Reference: patent US20030181369A1 (published 2003)

B1: HSV-tagged 16K derivative α2 (helix 2, amino acids 35-88) (other, not shown: small tags and cut ends)
chain: AKSGTGIAAMSVMRPEQIMKSIIPVVMAGIIAIYGLVVAVLIANSLNDDISLYK

Target: T1, T7-epitope tagged bovine β1 integrin (bovine, UniProt P53712 21-798)
T1 construct: mature; Expressed in HEK293 cells and detected in lysates with anti-T7 antibody; also called T7-β1 integrin; T7 tagged β1; not shown: le
Assay: co-immunoprecipitation with anti-HSV antibody, anti-T7 Western blot (FIG. 5B panel c)
Procedure: 16K derivatives were cotransfected with T7 tagged β1 integrin into HEK293 cells. Integrin expression was assessed by Western blot analysis of RIPA lysates probed with anti-T7 antibody (panel a), and glycosylation by GlcNAc-TV was assessed by incubating extracts with agarose-conjugated L-PHA and analysing recovered proteins with anti-T7 antibody (panel b). Proteins interacting with 16K or 16K mutants were isolated by immunoprecipitation using anti-HSV antibody followed by agarose conjugated protein A, and recovery of T7-β1 integrin monitored by Western blot analysis using anti-T7 antibody (panel c).
RIPA lysates made from HEK293 cells transiently transfected with pXJ41-T7-β1 were resolved on 8% SDS-PAGE, transferred to nitrocellulose, and probed with anti-T7 antibody. Alternatively, lysates were treated with endoglycosidase H (2 units) or glycopeptidase F and incubated at 37° C. overnight in the manufacturer's (Calbiochem) recommended buffers. Agarose conjugated L-PHA and ConA were used to isolate β1-6 branched and high mannose forms of β1 integrin respectively. Lysates made from cells co-transfected with HSV tagged 16K were treated with anti-HSV antibody and agarose-conjugated protein A and recovered complexes were analysed by Western blot as above. […]

T1 sequence (P53712 21-798): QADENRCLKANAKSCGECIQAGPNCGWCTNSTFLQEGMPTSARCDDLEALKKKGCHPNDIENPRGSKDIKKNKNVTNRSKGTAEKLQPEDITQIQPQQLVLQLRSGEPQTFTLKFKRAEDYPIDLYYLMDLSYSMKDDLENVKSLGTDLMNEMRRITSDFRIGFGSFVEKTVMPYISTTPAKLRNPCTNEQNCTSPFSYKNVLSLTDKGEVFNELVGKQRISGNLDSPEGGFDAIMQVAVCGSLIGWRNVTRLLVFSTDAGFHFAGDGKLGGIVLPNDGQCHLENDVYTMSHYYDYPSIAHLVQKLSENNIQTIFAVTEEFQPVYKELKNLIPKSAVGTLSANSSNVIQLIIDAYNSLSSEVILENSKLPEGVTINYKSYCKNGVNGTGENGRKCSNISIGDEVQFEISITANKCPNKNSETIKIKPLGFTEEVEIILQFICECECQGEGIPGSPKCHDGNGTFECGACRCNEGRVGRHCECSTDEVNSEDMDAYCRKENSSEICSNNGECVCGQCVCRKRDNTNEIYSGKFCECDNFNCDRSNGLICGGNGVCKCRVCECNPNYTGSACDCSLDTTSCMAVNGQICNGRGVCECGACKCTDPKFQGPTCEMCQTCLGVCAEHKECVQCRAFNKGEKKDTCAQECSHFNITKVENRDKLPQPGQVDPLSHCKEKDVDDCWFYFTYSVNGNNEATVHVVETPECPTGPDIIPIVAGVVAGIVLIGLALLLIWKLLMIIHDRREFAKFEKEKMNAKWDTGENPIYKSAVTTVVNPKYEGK

Row | Binder | binding result
1 | B1 | no binding
2 | GIVGDAGVRGTAQQPRLFVGMILILIFAEVLGLYGLIVALILSTK (other, not shown: small tags and cut ends) [HSV-tagged 16K derivative α4 (helix 4, amino acids 111-156)] | no binding
